We go through four molecules from US20060269977A1, “Recombinant antibody recognizing dioxin and gene encoding the antibody” (priority 2003, published 2006).

Holding throughout (type): binding
The nature of assay [1]: Hybridoma supernatant EIA: antibody titer to immobilized 2,3,4,7,8-PeCDF derivative-BSA conjugate and its inhibition by 2,3,4,7,8-PeCDF. The settings on record: titer inhibited by 2,3,4,7,8-PeCDF dissolved in 20% DMSO. Here is the method: After 7 to 10 days from the onset of the cultivation, a portion of the supernatant of the culture in the wells in which proliferation of hybridomas was observed was taken and added to a microtiter plate to which the 2,3,4,7,8-PeCDF derivative-BSA conjugate was immobilized. After allowing to react at room temperature for one hour, the plate was washed with PBS(−) containing 0.05% Tween 20. A peroxidase-labeled anti-mouse IgG antibody (recognizing γ-chain) (KPL Co.) was then added to the plate and allowed to react at room temperature for one hour, and the plate was then washed in the same manner. A substrate solution (TMB substrate, KPL Co.) was added to the plate, the peroxidase activity on the plate was measured, and the antibody titer in the supernatant of the culture was determined.

Assay [2] is described as follows: Indirect competitive immunoassay using anti-2,3,4,7,8-PeCDF scFv. The settings on record: 2,3,4,7,8-PeCDF solution in 20% DMSO; immobilized 2,3,4,7,8-PeCDF derivative-BSA conjugate; FIG. 9. As for the experimental part:
Determination of 2,3,4,7,8-PeCDF by an Indirect Competitive Immunoassay Using Anti-2,3,4,7,8-PeCDF scFv
One μg/ml of 2,3,4,7,8-PeCDF derivative-BSA conjugate (50 μl) was added to a microtiter plate, and allowed to react at room temperature for one hour. The wells of the microtiter plate were washed with PBS(−) containing 0.05% Tween 20. A solution of Block Ace (Yukijirushi Co.) was then added to the wells, and the wells were blocked by allowing them to stand at room temperature for two hours. After the microtiter plate was washed, a solution (25 μl) of 2,3,4,7,8-PeCDF prepared in various concentrations (a solution in 20% DMSO) and a solution (25 μl) of anti-2,3,4,7,8-PeCDF scFv were added to the wells, and allowed to react at room temperature for 0.5 to 1 hour. After the microtiter plate was again washed, a solution of anti-tetra-His antibody (Qiagen Co.) 2000-fold diluted was added to the wells, and allowed to react at room temperature for one hour. Subsequently, a solution (50 μl) of peroxidase-labeled anti-mouse IgG (recognizing γ-chain) antibody (KPL Co.) 3000-fold diluted was added to the wells, and allowed to react at room temperature for one hour. […] The reaction was terminated by adding 1 M H3PO4 (50 μl), and OD450 (control: OD600) was measured using a plate reader (Labsystems Co.).

A short description of assay [3]: EIA reactivity of H-chain variable region polypeptide fractions to immobilized 2,3,4,7,8-PeCDF-BSA conjugate. The settings on record: fractions eluted from nickel-chelate column; EIA on immobilized 2,3,4,7,8-PeCDF-BSA conjugate; FIG. 10. Here is the method: Escherichia coli Origami B (DE3) (Novagen Co.) was transformed using expression vector pET22Δ-Dx3860H which was prepared by removing the sequence between restriction enzyme sites Bam HI and Not I containing the L-chain variable region of expression vector pET22Δ-Dx3860HL. Using the transformant, the expression of the H-chain variable region polypeptide (polypeptide having the amino acid sequence as shown in SEQ ID No. 5) was carried out in the same manner as in the case of the scFv.
The H-chain variable region polypeptide obtained as an inclusion body was reconstituted on a nickel-chelate column as described above, and the product was then isolated and purified using imidazole. Protein concentrations of the fractions eluted from the chelate column were determined by measuring absorbance (280 nm), and the reactivity to an immobilized 2,3,4,7,8-PeCDF-BSA conjugate was also investigated by an EIA method. As a result, it was recognized that the fractions of the H-chain variable region polypeptide have an anti-2,3,4,7,8-PeCDF activity as shown in FIG. 10.

Positions count from the first letter of the chain named.

B1: Dx3150: monoclonal antibody recognizing 2,3,4,7,8-PeCDF, produced by hybridoma Dx3150r1; H/L variable regions SEQ ID Nos. 7 and 8 (antibody, V domains shown)
VH: DVQLQESGPGLVKPSQSLSLTCSVTGYSITSGFYWNWIRQFPGNKLEWMGYISYDGYNNYNPFLKNRVSITRDTSENQFFLKLHSVTTEDTATYYCVSYGSRRGVTYWGQGTTLTVSS
VL: QAVVTQESALTTSPGETVTLTCRSSTGAVTTSNYANWVQEKPDHLFTGLIGNTNNRAPGVPARFSGSLIGDKAALTITGAQTEDEAIYFCALWYNTHLVFGGGTRLTVLG
modifications: Polypeptide of H-chain variable region of monoclonal antibody Dx 3150; Polypeptide of L-chain variable region of monoclonal antibody Dx 3150
Regarding B1, in assay [1], the “recognition of 2,3,4,7,8-PeCDF by monoclonal antibody” value is “recognizing 2,3,4,7,8-PeCDF”.

B2: anti-2,3,4,7,8-PeCDF scFv: scFv: H-chain variable region of Dx3860, linker, L-chain variable region of Dx3860 (SEQ ID No. 56), expressed in E. coli Origami B (DE3) (protein)
scFv: EVKLVESGGGLVKPGGSLKLSCAASGFTFSSYAMSWVRQTPEKRLEWVASFSNGGITYYPDSVKGRFTISRDNARNILYLQMTSLRSEDTAIYYCARGYGPAYWGQGTLVTVSSGGGGSGGGGSGGGGSQAVVTQESALTTSPGETVTLTCRSSTGAVTTLNYANWVQEKPDHLFTGLIGNTNNRAPGVPARFSGSLIGDKAALTITGAQTEDEAIYFCALWYSNHLVFGGGTKLTVLG
modifications: scFv fragment Dx3860HL
B2: in assay [2], the “determination of 2,3,4,7,8-PeCDF by indirect competitive immunoassay” value is “can be determined in a highly sensitive manner”.

B3: H-chain variable region polypeptide: H-chain variable region of Dx3860, polypeptide having the amino acid sequence of SEQ ID No. 5, from vector pET22Δ-Dx3860H (antibody, V domains shown)
VH: EVKLVESGGGLVKPGGSLKLSCAASGFTFSSYAMSWVRQTPEKRLEWVASFSNGGITYYPDSVKGRFTISRDNARNILYLQMTSLRSEDTAIYYCARGYGPAYWGQGTLVTVSA
modifications: Polypeptide of H-chain variable region of monoclonal antibody Dx 3860
Turning to B3, the “binding activity to 2,3,4,7,8-PeCDF (anti-2,3,4,7,8-PeCDF activity)” value in assay [3] was “has a binding activity to 2,3,4,7,8-PeCDF”.

B4: Dx3860: monoclonal antibody recognizing 2,3,4,7,8-PeCDF, produced by hybridoma Dx3860r1; H/L variable regions SEQ ID Nos. 5 and 6 (antibody, V domains shown)
VH: B3 VH
VL: B1 VL with S32L, N95S, T96N, R105K
modifications: Polypeptide of H-chain variable region of monoclonal antibody Dx 3860; Polypeptide of L-chain variable region of monoclonal antibody Dx 3860
Regarding B4, the “recognition of 2,3,4,7,8-PeCDF by monoclonal antibody” value in assay [1] is “recognizing 2,3,4,7,8-PeCDF”.
